{"source": "the nanobody polyreactivity screen of Harvey et al. (2022)"}
{"assay": "yeast display, Sf9 membrane polyspecificity reagent, FACS + sequencing; frameworks hold sequencing errors", "how_it_was_run": "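A nanobody's polyreactivity label depends on the gate it was sorted from. Yeast display cells were stained with 10% biotinylated, detergent-solubilized Sf9 membrane reagent for 1 hour at 4 °C, enriched on streptavidin microbeads and sorted by FACS. The low and high (top ~1%) gates were set on anti-HA fluorescence for expression and streptavidin fluorescence for reagent binding.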"}
{"sequence": "QGQLVESGGGLVQAGGSIRLSCAASGYIFRRYAMGWYRQAPGKEREFVATISRSGGSTYYADSVKGRFTISRDNAKNTVYLQMNSLKPEDTAVYYCNAGYGYGYPKYDYWGQCTQVTVSS", "polyreactivity (PSR sort gate)": "high polyreactivity"}
{"sequence": "QVQLVDSGGGLVQAGGSLRLSCAASGFTIKYYAMVWYRQAPGKERELVATITSGARTNYADSVKGRFTISRDNAKNTVYLQMNSLKPEDTAVYYCATPYSAYWQNERDYWGQGTQVTVSS", "polyreactivity (PSR sort gate)": "high polyreactivity"}
{"sequence": "QVQLVESGGGLVQAGGSLRLSCAASGRIFESYAMGWYIQAPGKERELVAAISSGGGTTYYADSVKGLFTISRDNAKYSVYLQMNSLKPEDTAVYYCAADALSDEYDYWGQGTHVTVSS", "polyreactivity (PSR sort gate)": "low polyreactivity"}
{"sequence": "QVQLVESGGGLVQAGGSLRLSCAASGITFYYYVMGWYRQAHGKERELVAAISNRGGSTYYADSVKGRFTISRDNAKNTVYLQMNSLKPDDTAVYYCAAYPLSGYDYWGQGTQVTVSS", "polyreactivity (PSR sort gate)": "high polyreactivity"}
{"sequence": "QVQLVESGGGLVQAGGSLRLSCAASGRIFGVNAMGGDRQAPGKERELVAVISSGGSTYYADSVKGRFTISRDNAKNTVYLQMNSLKPEDTAVYYCAAGYLPDYDYWGQGTQVTVSS", "polyreactivity (PSR sort gate)": "low polyreactivity"}
{"sequence": "QVQLVESGGGLVQAGGSLRLSCAASGFIFHYYAMGWYRQAPGKERELVAAISSGGGRTYYADSVKGRFTISRDNAKNTVYLLMNSLKPEDTAVYYCAARYAVNAWGGRRDYWGQGTEVTVSS", "polyreactivity (PSR sort gate)": "high polyreactivity"}
{"sequence": "QVQLVESGGGLVQAGGSLRLSCAASGRTFKFYAMGWYRQAPGKERELVARITSNSGSTYYADSVKGRFTISRDTAKNTVYLQMTSLKPEDTAVYYCAVRGTLGSYWYTYYYWGQGTQVTVSS", "polyreactivity (PSR sort gate)": "high polyreactivity"}
{"sequence": "QVQLVESGGGLVQAGGSLRLSCAASGSTFGSNAMGWYRQAPGKERELVAAITNGGSTNYADSVKGRFTISRDNAKNTVYLQMHSLKPEDTAVYYCNADPQQSKLWTYFFGFPGYYWGQGTQVTVSS", "polyreactivity (PSR sort gate)": "low polyreactivity"}
{"sequence": "QVQLVESGGGLVQAGGSLRLSCAASGYTFFFNVMGWYRQAPGKERELVAAISYSGGSTNYADSVKGRFTISRDNAKNTVYLQMNSLKPEDTAVYYCNARTVSRNGYQDDYWGQGTQVTVSS", "polyreactivity (PSR sort gate)": "low polyreactivity"}
{"sequence": "QDQLGESGGGLVQAGGSLRLSCAASGLTFYFYAMGWYRPAPGKEREFVATISFSGGSTYYADSVKGRFTISRDNAKNTVYIQMNSLKPEDTAVYYCNAESDYYWYPYNYWGQGTQVTVSS", "polyreactivity (PSR sort gate)": "low polyreactivity"}
{"sequence": "QVQLVESGGGLDQAGGSLRLSCPASGRTISRNTMGWYRPAPGKERELVAGITYGGDRTYYADSVKGRFTISRDNAKNTVYLQMNSLKPEDTAVYYCAAPWYWKGLRDYWGQGTQVTVSS", "polyreactivity (PSR sort gate)": "low polyreactivity"}
{"sequence": "QVQLVESGGGLVQAGGSLRLSCAASGSTFSRYPMGWSRQAPGKERELVAAISWGGNTYYADSVKGRFTISRDNAKNTVYLQMNSLQPEDTAVYYCNRYSKLYNTMDYWGQGTQVTVSS", "polyreactivity (PSR sort gate)": "high polyreactivity"}
{"sequence": "QVQLVESGGGLVQAGGSLRLSCAASGSTFWTNAMGWYRQAPGKERQLVAASTEDGGSTYYADSVKGRFTISRDNAKNTVYLQMNSLKREVTAVYYCATVIGYLDDYLFPYPVPYYYWGQGTQVTVSS", "polyreactivity (PSR sort gate)": "low polyreactivity"}
{"sequence": "QVQLVESGGGLVQAGGSLRLSCAASGSIRYYAMGWYRQAPVKEREFVAAISRRGSSTNYADSVKGRFTISRDNAKNTVYLQMNSLKPDDTAVYYCARGLDVISYGYDYWGQGTQVTVSS", "polyreactivity (PSR sort gate)": "high polyreactivity"}
{"sequence": "QVQLLESGGGLVQAGGSLRLSCAASGLTFPLYAMGWYRQAPGKERELVAAINWSGGSTYYADSVKGRFTISRDKAKNTVYLQMNSLKPEDTAVYYCAAARSSLYYYWGQGTQVTVSS", "polyreactivity (PSR sort gate)": "high polyreactivity"}
{"sequence": "QVQLVESGGGLVQAGGSLRLSCAASGFIFGPNAMGWYRQAPGKERELVAAISWIGSSTYYADSVKGRFTISRDNAKNTVYFQMNSLKPQDTAVYYCAADSSERRLMDFDYWGQGTQVTVSS", "polyreactivity (PSR sort gate)": "low polyreactivity"}
{"sequence": "QVQLVESGGGLVQAGGSIRLSCAASGRTFDPYSRGWYRQAPGKERELVAAISRSGGSTYYADSVKGRFTISRDNAKNTVYLQLNSLKPEDTAVYYFDADASRYYYEYDYWGQGTQVNVSS", "polyreactivity (PSR sort gate)": "high polyreactivity"}
{"sequence": "QVQLVESGGGLVQAGGSLRLSCAASGSTFFYYAMVWYRQAPGKERELVAAISQSSASTYYADSVKGRFTISRDNAKNTVYLQMNSLKPEDTAVYYCAAARGYWWYDYWGQGTQVTVSS", "polyreactivity (PSR sort gate)": "high polyreactivity"}
{"sequence": "QVQLVESGGGLVQAGGSLRLSCAASGITFYDNVMGWYRQAPGKERELVAAITSGGSTNYADSVKGRFTISRDNAKNTVYLQMNSLKPEDTAVYYCAAQTRVDYEFPYRYGYWGQGTQVTVSS", "polyreactivity (PSR sort gate)": "low polyreactivity"}
{"sequence": "QVQLVDSGGGLVQAGGSLRLSCAASGSIFVGNAMGWYRQAPGKERELVAAISWRGGRTYYADSVKGRFTISRDNAKYTVYLQMNSLKPEDTAVYYCATVKARDYGYWGQGTQVTVSS", "polyreactivity (PSR sort gate)": "high polyreactivity"}
{"sequence": "QVQLVESGGGLVQAGGSLRLSCAASGNTFGYYALGWYRQAPGKERELVAGISSGGSTNYADSVKGRFTISRDNAKKTVYFQMNSLKPEDTAVYYCNARRYWLRYDYWGQVTQVTVSS", "polyreactivity (PSR sort gate)": "low polyreactivity"}
{"sequence": "QVQLVESGGALVQAGGSLRLSCAASGRTYWSYNIGWYRKAPGKERELVAAITSSGGTTNYADSVKGRFTISRDNAKNTVYLQMNRLKREDTAVYYFAAYSWYFGSRYDYWGQGTQVTVSS", "polyreactivity (PSR sort gate)": "low polyreactivity"}
{"sequence": "QVHLVESGGGLVQAGGSLRLSCAASGNTFYAYARGWYRQAPGKERELVAAIARAGNTYYADSVKGRFTISRDNAKNTVYLQMNSLKPEDTAVYYCNADDWWYGDNYWGQGTEVTVSS", "polyreactivity (PSR sort gate)": "high polyreactivity"}
{"sequence": "QVQLVESGGGLVQAGGSLRLSCAASGSIFAIYTMGWYRQAPGKVRELVAGITKSGGNTYYADSVKGRFTISRDNAKNTVYLQMNSLKPEDTSVYYCAASQYEYYDGWYRYDYWGQGTQVTVSS", "polyreactivity (PSR sort gate)": "high polyreactivity"}
{"sequence": "QDQLVESGGGLVQAGGSLRLSCAASGIIFYRYAMGWYRQAPGKERELVAAITWSGVSTSYADSVKGRFTISRDNAKNTVYLQMNSLKPEDTAVYYCNKDPGTLYGDMDSWGQGTQVTVSS", "polyreactivity (PSR sort gate)": "low polyreactivity"}
{"sequence": "QVQLVESGGGLFQAGGTLRLSCAATGITFRWYAMGWYRQAPGKEMELVAAITYRGGSTHYSDSVKGRFTISRDNAKNTVYLQMNSLKPEDTAVYYCAVRRWPRYRWSDYWGQGTQVTLSS", "polyreactivity (PSR sort gate)": "low polyreactivity"}
{"sequence": "QVQHVESCGGLVQAGGSLRLSCAASGRIINSNDMGWYRQAPGKERELVAAISKRGGSTFYADSVKGRFTISRDNAKNTVYLQRNSLKPEDTAVYYCAADKWTYYYAVDSWGQGTQVTVSS", "polyreactivity (PSR sort gate)": "high polyreactivity"}
{"sequence": "QVQLVESGGGLVQAGGSLRLSCAASGRIFRTYAMGWYRPAPGKERELVAAISGSGGRTYYADSVKGRFTISRDNAKNTVYLQMNSLKPEDTAVYYCANYVSIVRYGSTTNYDYWGQGTQVTVSS", "polyreactivity (PSR sort gate)": "high polyreactivity"}
{"sequence": "QDQLVESGGGLVQAGGSLRLSCAASGLTFGYYAMGWYRQAPGKERELVAAINSGGSTYYADSVKGRFTISRDNAKNTVYFQMNSLKPEDTAVYYCNATLDLYDSVSYTGPGMDYWGQGTQVTVSS", "polyreactivity (PSR sort gate)": "low polyreactivity"}
{"sequence": "QVHLVESGGGLVQARGSLRLSCAASGSIFRNYAMGWYRQAPGKERELLATISGRGGRTYYADSVKGRFTISRDNAKNTVYLQMNSLKPEDTAVYYCAARGTLGKYSTATVYWGKGTQVTVSS", "polyreactivity (PSR sort gate)": "high polyreactivity"}
{"sequence": "QVQLVESGGGLVQAGGSLRLSCAASGRIFTIYAMGWYRQAPGKERELVAAISDRGTRTYYADSVKGRFTISRDNAKNTVYLQMNSLKPEDSEVYYCATDALYTYGYDYWGQGTQVTVSS", "polyreactivity (PSR sort gate)": "low polyreactivity"}
{"sequence": "QVQLVESGGGLVQAGGSLRLSCAASGSRNAMGWYRQAPGKESEFVAAITWNGGSTYYADSVKGRFTISRDNAKNTVYLQMNSLKPEDTAVYYCNKREVFIYGTTYDYWRQGTQVTVSS", "polyreactivity (PSR sort gate)": "low polyreactivity"}
{"sequence": "QVKLVESGGGLVQAGGSLRLSCAASGRIFNWYAMGWYRQAPGKERELVARISSGDITSYADSVKGRFTISRDNAKNTVYLQMNSLKPEDTALYYCNDDGFFLNVSPYDYWGQGTQVTVSS", "polyreactivity (PSR sort gate)": "low polyreactivity"}
{"sequence": "QVQLVESGGGLVQAGGSLRLSCAASGRIFKSYAMGWYRQAPGIERELVAAIRSGGSTYYADSVKGRFTISRDNAKNTVYLQMNSLKPEYTAVYYCNRVTRTWKVTYHSWGQGTQVTVSS", "polyreactivity (PSR sort gate)": "high polyreactivity"}
{"sequence": "QVQLVESGGGLVQAGGSLRLSCAASGRIFLRNAMGWSRQAPRKERELVAAISSSGGRTYYADSVKGRFTISRDNAKNTVYLQMNSLKPEDTAVYYCNARWHGSFDYWGQGTQVTVSS", "polyreactivity (PSR sort gate)": "low polyreactivity"}
{"sequence": "QLQLVESGGGLVQAGGSLRLSCAASGSIFLIYDMGWYRQAPGKEMELVAAISNSVGSTYADSVKGRFTISRDNAKNTVYLQMNSLKPEDTAVYYCNADSGPIDGRGGYWGQGTQVTVSS", "polyreactivity (PSR sort gate)": "low polyreactivity"}
{"sequence": "QVQLVESGGGLVQAGGSLRLSCAASGSTFVDNAMGWYRQAPGKERELVADITWSGGSTYYADSVKGRFTISRDNAKNTVYLQMNSLKPEDTAVYYCAKVPKSRGYVGGMDYWGQGTQVTVSS", "polyreactivity (PSR sort gate)": "low polyreactivity"}
{"sequence": "QVQLVESGGGLVQAGGSLRLSCAASGSIFGGYTMGWYRQAPGKERELVAAISRRGGNTYYADSVKGRFTISRDYAKNTVYLHMKSMKPEDTAVYYCAVRWPSARIPVKLDYWGQGTQVTVSS", "polyreactivity (PSR sort gate)": "high polyreactivity"}
{"sequence": "QVQLVESGGGLVQAGGSLRLSCAASGRIYYRYGMGWYRQAPGKERELVAAISRTGGSTYYADSVKGRFTISRDNAKNTVYLQMNSLIPEDTAVYYCNATSNYRYDYWGQGTQVTVSS", "polyreactivity (PSR sort gate)": "low polyreactivity"}
{"sequence": "QVQLVESGGGLVQAGGSLRLSCAASGSIFYFNAMGWYRQAPGKERELVARISGSSGRTYFADSVKGRFTISRDNAKNTVYLQMNSLKPEDTAVYYCAARYYTSATMDYWGQGTQVTVSS", "polyreactivity (PSR sort gate)": "high polyreactivity"}
{"sequence": "QVQLVESGGGLVQAGGSLRLSCAASGRTFQYYAMGWYRQAPGKERELVAAITRGDSTYYADSVKGRFTISRDNAKNTVYLQMNSLKPEDTAVYYCNAKLYKPPFDYWGQGTQVTVSS", "polyreactivity (PSR sort gate)": "low polyreactivity"}
{"sequence": "QDQLVESGGGLVQAGGRRRLSCAASGSIFGGYSMGWYRQAPGKERELVAAISRRGGNTYYADSVKGRFTISGDNAKNTVYLQMNSLKPDDTAVYYCAVRWPSARIPVKLDYWVQGTQVTVSS", "polyreactivity (PSR sort gate)": "high polyreactivity"}
{"sequence": "QVQLVESGGGLVQAGGSLRLSCAASGRNFYYYAMGWSRQAPGKERELVAAISWSGGSTRYADSVKGRFTISRDNPKNTVYLQMNSLKPEDTAVYYCAAEPDYWVGWIRYDYWGQGTQVTVSS", "polyreactivity (PSR sort gate)": "low polyreactivity"}
